Measurements taken from patent publication US20160024159A1.

What was measured:
Test in all cases: cell-based or functional assay
[1] = molecular target: human voltage-gated sodium channel Nav1.7 (human) (UniProt Q15858)
[2] = molecular target: TTX-sensitive Nav channels in mouse DRG neurons
[3] = molecular target: human Nav1.7 voltage-gated sodium channel (human) (UniProt Q15858)
[4] = molecular target: human voltage-gated sodium channel Nav1.3 (human) (UniProt Q9NY46)
[5] = molecular target: human voltage-gated sodium channel Nav1.4 (human) (UniProt P35499)
[6] = molecular target: human voltage-gated sodium channel Nav1.5 (human) (UniProt Q14524)
human voltage-gated sodium channel Nav1.5 (human), sequence (Q14524 whole entry): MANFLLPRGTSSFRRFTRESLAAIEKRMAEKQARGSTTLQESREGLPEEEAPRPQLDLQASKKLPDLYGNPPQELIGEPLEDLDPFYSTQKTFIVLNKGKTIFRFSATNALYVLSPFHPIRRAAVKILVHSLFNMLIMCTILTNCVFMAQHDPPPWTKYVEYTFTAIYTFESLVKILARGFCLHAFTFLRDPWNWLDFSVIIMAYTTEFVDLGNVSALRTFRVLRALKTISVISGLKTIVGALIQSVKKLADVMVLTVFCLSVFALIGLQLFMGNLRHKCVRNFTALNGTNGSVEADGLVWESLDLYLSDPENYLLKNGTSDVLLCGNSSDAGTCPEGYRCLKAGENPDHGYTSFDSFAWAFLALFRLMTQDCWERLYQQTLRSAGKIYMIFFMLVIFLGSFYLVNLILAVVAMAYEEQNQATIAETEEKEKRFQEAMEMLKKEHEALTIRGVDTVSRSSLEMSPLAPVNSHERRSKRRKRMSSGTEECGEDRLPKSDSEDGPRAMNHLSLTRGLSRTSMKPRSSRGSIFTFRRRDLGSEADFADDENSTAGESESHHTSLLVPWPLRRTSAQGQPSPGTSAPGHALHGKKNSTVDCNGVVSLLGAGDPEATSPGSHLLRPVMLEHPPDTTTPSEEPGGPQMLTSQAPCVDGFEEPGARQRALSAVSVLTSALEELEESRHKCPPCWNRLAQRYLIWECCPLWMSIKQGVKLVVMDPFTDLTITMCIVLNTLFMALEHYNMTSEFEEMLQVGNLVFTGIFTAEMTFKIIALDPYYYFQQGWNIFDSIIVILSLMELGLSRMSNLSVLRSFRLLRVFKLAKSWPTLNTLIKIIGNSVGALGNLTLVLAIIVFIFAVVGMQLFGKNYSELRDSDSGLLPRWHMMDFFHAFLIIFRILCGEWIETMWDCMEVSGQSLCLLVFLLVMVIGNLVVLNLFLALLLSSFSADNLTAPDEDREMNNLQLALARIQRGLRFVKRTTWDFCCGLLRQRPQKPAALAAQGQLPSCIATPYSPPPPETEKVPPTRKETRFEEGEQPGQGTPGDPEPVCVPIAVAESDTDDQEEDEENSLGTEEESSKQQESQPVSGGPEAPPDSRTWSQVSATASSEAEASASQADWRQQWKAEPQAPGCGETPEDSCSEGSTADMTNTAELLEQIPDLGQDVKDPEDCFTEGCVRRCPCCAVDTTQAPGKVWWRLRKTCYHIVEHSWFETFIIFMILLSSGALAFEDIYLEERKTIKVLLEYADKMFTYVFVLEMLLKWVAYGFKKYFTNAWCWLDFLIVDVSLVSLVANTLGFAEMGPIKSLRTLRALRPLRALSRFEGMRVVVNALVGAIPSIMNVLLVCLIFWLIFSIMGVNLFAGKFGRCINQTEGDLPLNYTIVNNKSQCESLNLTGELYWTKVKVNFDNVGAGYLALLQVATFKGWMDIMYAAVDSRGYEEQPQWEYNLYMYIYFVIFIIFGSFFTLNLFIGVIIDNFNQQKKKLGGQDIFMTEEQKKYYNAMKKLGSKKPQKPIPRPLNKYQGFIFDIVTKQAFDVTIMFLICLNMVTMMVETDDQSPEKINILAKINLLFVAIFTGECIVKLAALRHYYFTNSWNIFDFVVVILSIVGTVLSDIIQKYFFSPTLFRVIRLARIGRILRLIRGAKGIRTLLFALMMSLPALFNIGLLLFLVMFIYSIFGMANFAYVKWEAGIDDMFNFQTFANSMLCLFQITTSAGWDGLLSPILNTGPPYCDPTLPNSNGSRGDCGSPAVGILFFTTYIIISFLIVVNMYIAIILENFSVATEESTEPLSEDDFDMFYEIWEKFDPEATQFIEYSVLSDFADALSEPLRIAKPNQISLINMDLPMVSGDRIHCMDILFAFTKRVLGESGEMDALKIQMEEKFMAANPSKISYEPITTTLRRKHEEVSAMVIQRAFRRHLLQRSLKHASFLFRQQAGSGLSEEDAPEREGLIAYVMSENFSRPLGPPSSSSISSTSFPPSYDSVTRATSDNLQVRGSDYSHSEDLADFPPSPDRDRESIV

human voltage-gated sodium channel Nav1.7 (human), sequence (Q15858 whole entry): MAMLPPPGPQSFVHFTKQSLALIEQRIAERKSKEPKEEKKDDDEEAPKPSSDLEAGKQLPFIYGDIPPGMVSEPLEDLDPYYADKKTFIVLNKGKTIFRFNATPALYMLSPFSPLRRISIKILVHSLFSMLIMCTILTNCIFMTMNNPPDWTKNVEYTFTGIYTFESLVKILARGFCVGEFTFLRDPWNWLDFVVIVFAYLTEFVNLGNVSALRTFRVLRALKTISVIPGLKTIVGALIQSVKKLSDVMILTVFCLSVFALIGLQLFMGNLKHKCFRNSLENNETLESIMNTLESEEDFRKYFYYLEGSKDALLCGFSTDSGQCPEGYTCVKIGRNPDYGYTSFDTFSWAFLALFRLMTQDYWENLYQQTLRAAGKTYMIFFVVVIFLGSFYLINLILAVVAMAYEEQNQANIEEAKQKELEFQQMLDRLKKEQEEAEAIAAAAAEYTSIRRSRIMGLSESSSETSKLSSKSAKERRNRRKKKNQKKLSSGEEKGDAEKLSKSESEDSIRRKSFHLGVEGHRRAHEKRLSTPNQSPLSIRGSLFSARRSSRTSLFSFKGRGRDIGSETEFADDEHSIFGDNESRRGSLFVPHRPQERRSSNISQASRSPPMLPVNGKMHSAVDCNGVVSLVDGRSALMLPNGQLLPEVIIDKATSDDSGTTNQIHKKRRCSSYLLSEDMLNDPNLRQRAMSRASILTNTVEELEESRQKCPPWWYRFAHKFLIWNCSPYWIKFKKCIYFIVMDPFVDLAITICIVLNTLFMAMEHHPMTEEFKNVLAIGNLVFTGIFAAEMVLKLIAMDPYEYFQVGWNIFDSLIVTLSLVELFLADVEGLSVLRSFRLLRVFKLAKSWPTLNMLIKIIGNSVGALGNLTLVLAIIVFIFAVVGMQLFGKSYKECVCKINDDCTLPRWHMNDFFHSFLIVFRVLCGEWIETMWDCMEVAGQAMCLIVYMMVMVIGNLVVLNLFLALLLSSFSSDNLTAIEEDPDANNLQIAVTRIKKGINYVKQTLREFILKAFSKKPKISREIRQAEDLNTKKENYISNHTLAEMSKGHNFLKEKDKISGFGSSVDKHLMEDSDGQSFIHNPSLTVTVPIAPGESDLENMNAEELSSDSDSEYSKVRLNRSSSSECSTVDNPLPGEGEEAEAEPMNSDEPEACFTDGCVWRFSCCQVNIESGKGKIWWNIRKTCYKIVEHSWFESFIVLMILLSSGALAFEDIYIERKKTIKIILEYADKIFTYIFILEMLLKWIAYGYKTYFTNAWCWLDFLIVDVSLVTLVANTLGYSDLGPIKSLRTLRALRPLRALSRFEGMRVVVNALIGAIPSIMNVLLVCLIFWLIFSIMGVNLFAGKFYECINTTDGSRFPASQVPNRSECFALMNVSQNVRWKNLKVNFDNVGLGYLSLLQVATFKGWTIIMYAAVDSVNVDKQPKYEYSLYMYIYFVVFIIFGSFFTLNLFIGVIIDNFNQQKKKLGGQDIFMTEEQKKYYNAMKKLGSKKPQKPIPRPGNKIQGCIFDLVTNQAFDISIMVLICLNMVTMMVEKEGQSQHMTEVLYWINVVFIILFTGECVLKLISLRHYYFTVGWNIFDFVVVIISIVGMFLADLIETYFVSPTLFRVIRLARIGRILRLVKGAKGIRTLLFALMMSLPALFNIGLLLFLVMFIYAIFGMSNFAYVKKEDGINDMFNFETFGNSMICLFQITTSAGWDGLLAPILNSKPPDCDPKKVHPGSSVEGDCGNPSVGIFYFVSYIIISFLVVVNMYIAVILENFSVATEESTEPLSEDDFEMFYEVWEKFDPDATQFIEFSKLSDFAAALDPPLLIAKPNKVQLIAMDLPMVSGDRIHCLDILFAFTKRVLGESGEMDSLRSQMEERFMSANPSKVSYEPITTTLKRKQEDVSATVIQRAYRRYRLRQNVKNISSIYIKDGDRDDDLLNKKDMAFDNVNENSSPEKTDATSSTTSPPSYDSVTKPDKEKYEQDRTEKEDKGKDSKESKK
human Nav1.7 voltage-gated sodium channel (human), sequence (Q15858 whole entry): as above

## CyA-[Nle6; Val8; Lys17; Glu28]JzTx-V(1-29) (peptide)
[1]
  PX hNav1.7 Tonic IC50: 26.6 nM

## Pra-[Nle6;5-BrW24;Glu28]JzTx-V(1-29) (peptide)
[2]
  WCPC Mean IC50, partially inactivated: 3.8 nM
[3]
  WCPC Mean IC50, partially inactivated: 0.13 nM

## Pra-[Nle6;Glu12,28]JzTx-V(1-29) (peptide)
[2]
  WCPC Mean IC50, partially inactivated: 144 nM

## Pra-[Nle6;Glu14,28]JzTx-V(1-29) (peptide)
[2]
  WCPC Mean IC50, partially inactivated: 99.8 nM

## [Cit7;Glu20;Tyr28]JzTx-V(1-29) (peptide)
[4]
  IC50, IonWorks Quattro electrophysiology: > 7 µM
[1]
  IC50, IonWorks Quattro electrophysiology: 5.8 µM
[5]
  IC50, IonWorks Quattro electrophysiology: > 7 µM
[6]
  IC50, IonWorks Quattro electrophysiology: > 7 µM

## [Nle6;Pra11;Glu20;Trp29]JzTx-V(1-29) (peptide)
[1]
  IC50, IonWorks Quattro electrophysiology: 0.026 µM

## [Nva7;Glu20;Tyr28]JzTx-V(1-29) (peptide)
[4]
  IC50, IonWorks Quattro electrophysiology: > 7 µM
[1]
  IC50, IonWorks Quattro electrophysiology: 4.5 µM
[5]
  IC50, IonWorks Quattro electrophysiology: > 7 µM
[6]
  IC50, IonWorks Quattro electrophysiology: > 7 µM
